We go through four molecules from patent publication US20150322135A1 (Pfizer, published 2015).

The target of assay [1] is T1, Mouse FcRn protein (mouse, UniProt Q61559 22-297).
T1 construct: Bought protein; called soluble in the 1-to-1 assay and amine-coupled to the chip in the avidity and pH-switch assays; also called soluble mouse FcRn protein; neonatal Fc receptor
Description: SPR 1-to-1 format: variant amine-coupled to CM5 chip, soluble mouse FcRn injected, pH 6.0, steady state. The method, then: (§1) The FcRn binding assays were carried out using a surface plasmon resonance (SPR) biosensor, Biacore 3000 (Biacore, Uppsala, Sweden). The sensor chip CM5, surfactant P20, N-ethyl-N-(3-dimethylaminopropyl)carbodiimide (EDC), N-hydroxysuccinimide (NHS), and 1 M ethanolamine (pH 8.5) were purchased from GE Healthcare (Piscataway, N.J.). The SPR experiments were conducted at 25° C. in PBS buffer (pH 6.0) with 0.005% P20. A Mouse FcRn protein was purchased from ARVYS Proteins, Inc. (Stamford, Conn.). All the experiments were repeated three times.
1-to-1 binding Assay—Immobilization of engineered N-glycosylated Fc variants or Fab-mono engineered N-glycosylated Fc variants on a CM5 sensor chip was conducted by the amine coupling method. Briefly, 20 μM protein solution was diluted 20 times in 10 mM acetate (pH 4.5) and injected onto a biosensor surface which had been pre-activated with a 20 uL injection of 1:1 mixture of 200 mM EDC and 50 mM NHS, followed by the injection of 1 M ethanolamine-HCl (pH 8.5). For reference surface, one flow cell was activated by the EDC-NHS mixture and deactivated by ethanol amine without protein. The equilibrium binding was measured by injecting 150 uL of soluble mouse FcRn protein at flow rate of 5 uL/min. The sensor surfaces were regenerated by running PBS buffer (pH 7.2) for 1 min. We observed that all the binding curves of each concentration reached the plateau at the end of injection (30 min).

Assay [2] concerns the target T1, Mouse FcRn protein. Description: SPR pH-switch assay: mouse FcRn immobilised, variant bound at pH 6.0, percent bound in the dissociation phase at neutral pH against pH 6.0. The method, then:
as §1
pH-Switch Assay: In order to evaluate the efficiency of dissociation of Fab-monoFc variants from FcRn at neutral pH, the “pH-switch assay” modified from the method that was previously reported was employed. See, e.g., Wang et al., Drug Metab. Dispos. 39, 1469-1477 (2011). In this assay, mouse FcRn protein was immobilized on a CM5 sensor chip by the amine coupling method. The binding was measured by injecting 100 uM of Fab-monoFc variants in running buffer (PBS, pH 6.0) followed by injection of either running buffer (PBS, pH 6.0) or neutral buffer (PBS, pH 7.2) alone over the FcRn surface at flow rate of 50 μL/min.

Assay [3] deals with T1, Mouse FcRn protein. Description: SPR avidity format: mouse FcRn immobilised on CM5 chip, variant injected, pH 6.0, steady state. The protocol: as §1
(§2) Avidity Assay: —In order to assess the avidity of analyte (molecule in mobile phase), the SPR-based “avidity assay format” was performed as previously described. See, e.g., Zalevsky et al., Nature Biotech. 28, 157-159; Yeung et al., J. Immunol. 182, 7663-7671 (2009); and Suzuki et al., J. Immunol. 184, 1968-1976 (2010). That is, mouse FcRn protein was immobilized on a CM5 sensor chip by the amine coupling method as described above. The equilibrium binding was measured by injecting 30 μL, of Fab-monoFc variants over the FcRn surface at flow rate of 2 μL/min. The sensor surfaces were regenerated by running 100 mM tris-HCl, pH 8.0 for 1 min.

The target in assay [4] is T1, Mouse FcRn protein. Description: SPR avidity format: FcRn localized on the chip surface. The protocol: as §1, §2

T1 sequence (Q61559 22-297): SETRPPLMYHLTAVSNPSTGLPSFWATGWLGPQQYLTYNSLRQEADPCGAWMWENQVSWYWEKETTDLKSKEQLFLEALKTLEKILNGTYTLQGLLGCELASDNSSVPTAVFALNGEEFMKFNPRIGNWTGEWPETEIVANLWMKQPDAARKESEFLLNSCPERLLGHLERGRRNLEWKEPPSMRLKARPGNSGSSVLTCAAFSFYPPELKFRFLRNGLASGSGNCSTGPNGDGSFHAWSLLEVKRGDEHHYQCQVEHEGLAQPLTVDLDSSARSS

B1: Fab-CH23-HEK (Fab-CH23 [N364/N407] produced from HEK293 transient expression system) (Fc fusion)
heavy: EVQLVESGGGLVQPGGSLRLSCAASGFTFSNYDMYWVRQTTGKGLEWVSAIGTAGDTYYPGSVKGRFTISRENAKNSLYLQMNSLRAGDTAVYYCAREKSSTSAFDYWGQGTLVTVSSASTKGPSVFPLAPSSKSTSGGTAALGCLVKDYFPEPVTVSWNSGALTSGVHTFPAVLQSSGLYSLSSVVTVPSSSLGTQTYICNVNHKPSNTKVDKKVEPKSCDKTHTGGGGSGGGGSGGPSVFLFPPKPKDTLMISRTPEVTCVVVDVSHEDPEVKFNWYVDGVEVHNAKTKPREEQYNSTYRVVSVLTVLHQDWLNGKEYKCKVSNKALPAPIEKTISKAKGQPREPQVYTLPPSREEMTKNQVNLTCLVKGFYPSDIAVEWESNGQPENNYKTTPPVLDSDGSFFLNSTLTVDKSRWQQGNVFSCSVMHEALHNHYTQKSLSLSPGK
light: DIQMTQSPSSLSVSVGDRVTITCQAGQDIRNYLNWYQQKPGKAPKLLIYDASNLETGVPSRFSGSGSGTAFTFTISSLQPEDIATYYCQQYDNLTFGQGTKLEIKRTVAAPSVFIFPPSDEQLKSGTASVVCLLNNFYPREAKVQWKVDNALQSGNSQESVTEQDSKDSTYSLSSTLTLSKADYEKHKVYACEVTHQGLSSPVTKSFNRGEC
modifications: N-linked glycans at Asn297 (natural) and engineered Asn364 and Asn407 (EU numbering), HEK293 glycoform
notes: Same construct as Fab-CH23, made in HEK293 cells instead of CHO cells
For the molecule B1, the Kd with Mouse FcRn protein [1] was 230 nM; in the assay with Mouse FcRn protein [3], 180 nM. For the same molecule, the “% bound” value in the assay with Mouse FcRn protein [2] amounted to 1.1%.

B2: Fab-CH23 (Fab-CH23-N364/N407), Fab of an anti-KLH antibody fused to CH23 (Fc fusion)
heavy: EVQLVESGGGLVQPGGSLRLSCAASGFTFSNYDMYWVRQTTGKGLEWVSAIGTAGDTYYPGSVKGRFTISRENAKNSLYLQMNSLRAGDTAVYYCAREKSSTSAFDYWGQGTLVTVSSASTKGPSVFPLAPSSKSTSGGTAALGCLVKDYFPEPVTVSWNSGALTSGVHTFPAVLQSSGLYSLSSVVTVPSSSLGTQTYICNVNHKPSNTKVDKKVEPKSCDKTHTGGGGSGGGGSGGPSVFLFPPKPKDTLMISRTPEVTCVVVDVSHEDPEVKFNWYVDGVEVHNAKTKPREEQYNSTYRVVSVLTVLHQDWLNGKEYKCKVSNKALPAPIEKTISKAKGQPREPQVYTLPPSREEMTKNQVNLTCLVKGFYPSDIAVEWESNGQPENNYKTTPPVLDSDGSFFLNSTLTVDKSRWQQGNVFSCSVMHEALHNHYTQKSLSLSPGK
light: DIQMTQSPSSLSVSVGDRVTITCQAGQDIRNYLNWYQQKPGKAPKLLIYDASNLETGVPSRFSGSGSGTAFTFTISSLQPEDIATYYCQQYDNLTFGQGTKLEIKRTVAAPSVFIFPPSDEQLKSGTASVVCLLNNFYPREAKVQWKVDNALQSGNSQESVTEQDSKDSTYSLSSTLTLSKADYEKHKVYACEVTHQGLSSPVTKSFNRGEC
modifications: N-linked glycans at Asn297 (natural) and engineered Asn364 and Asn407 (EU numbering)
notes: also called Fab-monoFc
Turning to B2, the figures for the Kd in the assay with Mouse FcRn protein [1] and with Mouse FcRn protein [3] were 250 nM and 180 nM, respectively. Moreover, the “% bound” value with Mouse FcRn protein [2] was 5.6%.

B3: Fab-CH23[M428L/N434S] (FcRn enhancement variant) (Fc fusion)
heavy: EVQLVESGGGLVQPGGSLRLSCAASGFTFSNYDMYWVRQTTGKGLEWVSAIGTAGDTYYPGSVKGRFTISRENAKNSLYLQMNSLRAGDTAVYYCAREKSSTSAFDYWGQGTLVTVSSASTKGPSVFPLAPSSKSTSGGTAALGCLVKDYFPEPVTVSWNSGALTSGVHTFPAVLQSSGLYSLSSVVTVPSSSLGTQTYICNVNHKPSNTKVDKKVEPKSCDKTHTGGGGSGGGGSGGPSVFLFPPKPKDTLMISRTPEVTCVVVDVSHEDPEVKFNWYVDGVEVHNAKTKPREEQYNSTYRVVSVLTVLHQDWLNGKEYKCKVSNKALPAPIEKTISKAKGQPREPQVYTLPPSREEMTKNQVNLTCLVKGFYPSDIAVEWESNGQPENNYKTTPPVLDSDGSFFLNSTLTVDKSRWQQGNVFSCSVLHEALHSHYTQKSLSLSPGK
light: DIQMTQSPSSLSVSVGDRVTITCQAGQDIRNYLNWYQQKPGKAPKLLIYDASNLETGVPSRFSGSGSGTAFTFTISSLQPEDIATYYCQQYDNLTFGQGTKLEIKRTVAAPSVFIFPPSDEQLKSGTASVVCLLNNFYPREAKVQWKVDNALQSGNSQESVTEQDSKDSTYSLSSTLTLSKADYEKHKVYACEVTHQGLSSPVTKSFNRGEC
modifications: N-linked glycans at Asn297 (natural) and engineered Asn364 and Asn407 (EU numbering)
notes: Made in CHO cells; also called Fab-CH23 [M428L/N434L]
In the case of B3, the figures for the Kd with Mouse FcRn protein [1] and with Mouse FcRn protein [3] were 68 nM and 35 nM, respectively. Further, in the assay with Mouse FcRn protein [2], the “% bound” value worked out at 20%.

B4: Fab-CH23-CH23 (tandem CH23 construct comprising two engineered Fc polypeptides) (Fc fusion)
heavy: EVQLVESGGGLVQPGGSLRLSCAASGFTFSNYDMYWVRQTTGKGLEWVSAIGTAGDTYYPGSVKGRFTISRENAKNSLYLQMNSLRAGDTAVYYCAREKSSTSAFDYWGQGTLVTVSSASTKGPSVFPLAPSSKSTSGGTAALGCLVKDYFPEPVTVSWNSGALTSGVHTFPAVLQSSGLYSLSSVVTVPSSSLGTQTYICNVNHKPSNTKVDKKVEPKSCDKTHTGGGGSGGGGSGGPSVFLFPPKPKDTLMISRTPEVTCVVVDVSHEDPEVKFNWYVDGVEVHNAKTKPREEQYNSTYRVVSVLTVLHQDWLNGKEYKCKVSNKALPAPIEKTISKAKGQPREPQVYTLPPSREEMTKNQVNLTCLVKGFYPSDIAVEWESNGQPENNYKTTPPVLDSDGSFFLNSTLTVDKSRWQQGNVFSCSVMHEALHNHYTQKSLSLSPGGGGSGGGGSGGGGSGGGGSGGPSVFLFPPKPKDTLMISRTPEVTCVVVDVSHEDPEVKFNWYVDGVEVHNAKTKPREEQYNSTYRVVSVLTVLHQDWLNGKEYKCKVSNKALPAPIEKTISKAKGQPREPQVYTLPPSREEMTKNQVNLTCLVKGFYPSDIAVEWESNGQPENNYKTTPPVLDSDGSFFLNSTLTVDKSRWQQGNVFSCSVMHEALHNHYTQKSLSLSPGK
light: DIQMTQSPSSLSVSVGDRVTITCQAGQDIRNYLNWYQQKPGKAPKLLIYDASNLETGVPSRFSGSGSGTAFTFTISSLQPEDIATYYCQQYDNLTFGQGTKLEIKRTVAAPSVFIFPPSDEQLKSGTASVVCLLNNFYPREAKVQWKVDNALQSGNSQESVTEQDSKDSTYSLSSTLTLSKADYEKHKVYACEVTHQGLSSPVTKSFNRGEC
modifications: N-linked glycans at Asn297 (natural) and engineered Asn364 and Asn407 (EU numbering) in each of the two CH23 units
notes: Made in CHO cells; also called Fab-CH23-4XGS-CH23; tandem CH23-CH23
B4: the Kd in the assay with Mouse FcRn protein [1] was 250 nM; in the assay with Mouse FcRn protein [3] it was 4.5 nM. In the assay with Mouse FcRn protein [2], the “% bound” value turned out to be 14%. Further, the “fold higher affinity than Fab-CH23 (avidity assay)” value with Mouse FcRn protein [4] is roughly 40 fold.
